Laboratory results published in patent US20230303666A1.

Target: SARS-CoV-2 S on pseudotyped lentivirus (pCMV-SARS2deltaC-gp41) (SARS-CoV-2) (UniProt P0DTC2)
Assay: cell-based or functional assay

## Nb21.t (VHH)
  IC50 of pseudovirus neutralization: 0.244 nM
